Experimental data reported in paper PMC314469 (2004).
Like-named read-outs stand apart in the source and are kept apart here. No end group written: not given here.

T1: GST-Abp1 SH3 domain (S. cerevisiae, UniProt P15891 532-592)
T1 chain: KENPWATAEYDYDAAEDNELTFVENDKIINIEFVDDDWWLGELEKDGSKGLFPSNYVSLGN

B1: RVS167 SH3 domain (protein)
chain: PGVETVTALYDYQAQAAGDLSFPAGAVIEIVQRTPDVNEWWTGRYNGQQGVFPGNYVQLNKN

Legend:
Assay in all cases: SPR
RVS167 SH3 domain = target: B1
GST-Abp1 SH3 domain [1] = target: T1, GST-Abp1 SH3 domain
GST-Abp1 SH3 domain [2] = target: T1, GST-Abp1 SH3 domain
YPR171 peptide = target: YPR171 peptide
YMR192 peptide = target: YMR192 peptide
YJR083C peptide = target: YJR083C peptide

Row | Binder | Kd (RVS167 SH3 domain) | Kd (GST-Abp1 SH3 domain [1]) | Kd (GST-Abp1 SH3 domain [2]) | Kd (YPR171 peptide) | Kd (YMR192 peptide) | Kd (YJR083C peptide)
1 | RPKRRAPPPVPKKP (also: bound to cellulose SPOT membrane) [Yir003w peptide(s) on the Abp1 SPOT membrane] | 13 µM | 0.92 µM | 0.9 µM | – | – | –
2 | BOI2 SH3 domain (protein) GNFPMYIAINEYFKRMEDELDMKPGDKIKVITDDEEYKDGWYFGRNLRTNEEGLYPVVFTQKITV | – | – | – | > 100 µM | > 100 µM | > 100 µM
3 | SKDKKTKPTPPPKP (also: bound to cellulose membrane (SPOT)) [Ark1 peptide(s) on the Abp1 SPOT membrane] | > 100 µM | 24 µM | 24 µM | – | – | –
4 | LSTKKPRPPVKSKP (also: bound to cellulose membrane) [Scp1 peptide(s) on the Abp1 SPOT membrane] | – | 14 µM | 14 µM | – | – | –
5 | YFR024C SH3 domain (protein) TSSPKAVALYSFAGEESGDLPFRKGDVITILKKSDSQNDWWTGRVNGREGIFPANYVELV | – | – | – | 4.8 µM | – | –
6 | GKDKSRPPRPPPKP (also: bound to cellulose membrane (SPOT)) [Prk1 peptide(s) on the Abp1 SPOT membrane] | > 100 µM | 22 µM | 22 µM | – | – | –
7 | PPPRPKKP (also: bound to cellulose membrane) [Srv2 peptide(s) on the Abp1 SPOT membrane] | – | 75 µM | 75 µM | – | – | –
8 | B1 | – | – | – | 16 µM | – | –
